Results as given in patent US20200024330A1.

Tests used:
[1] = biological target: HIV-1 APV6 envelope glycoprotein (Env) on pseudovirus (HIV-1); assay: cell-based or functional assay
[2] = biological target: HIV-1 94UG103 envelope glycoprotein (Env) on pseudovirus (HIV-1); assay: cell-based or functional assay
[3] = biological target: HIV-1 JRFL envelope glycoprotein (Env) on pseudovirus (HIV-1); assay: cell-based or functional assay
[4] = biological target: HIV-1 APV13 envelope glycoprotein (Env) on pseudovirus (HIV-1); assay: cell-based or functional assay
[5] = biological target: HIV-1 92BR020 envelope glycoprotein (Env) on pseudovirus (HIV-1); assay: cell-based or functional assay
[6] = biological target: HIV-1 MGRM-D-001 envelope glycoprotein (Env) on pseudovirus (HIV-1); assay: cell-based or functional assay
[7] = biological target: HIV-1 APV17 envelope glycoprotein (Env) on pseudovirus (HIV-1); assay: cell-based or functional assay
[8] = biological target: HIV-1 92TH021 envelope glycoprotein (Env) on pseudovirus (HIV-1); assay: cell-based or functional assay
[9] = biological target: HIV-1 93IN905 envelope glycoprotein (Env) on pseudovirus (HIV-1); assay: cell-based or functional assay
[10] = biological target: HIV-1 JRCSF envelope glycoprotein (Env) on pseudovirus (HIV-1) (UniProt P20871); assay: cell-based or functional assay
[11] = biological target: HIV-1 MGRM-D-018 envelope glycoprotein (Env) on pseudovirus (HIV-1); assay: cell-based or functional assay
[12] = biological target: aMLV envelope protein on pseudovirus (negative control virus); assay: cell-based or functional assay
[13] = biological target: HIV-1 92UG005 envelope glycoprotein (Env) on pseudovirus (HIV-1); assay: cell-based or functional assay
[14] = biological target: HIV-1 MGRM-C-026 envelope glycoprotein (Env) on pseudovirus (HIV-1); assay: cell-based or functional assay
[15] = biological target: HIV-1 MGRM-AG-005 envelope glycoprotein (Env) on pseudovirus (HIV-1); assay: cell-based or functional assay
[16] = biological target: HIV-1 92RW020 envelope glycoprotein (Env) on pseudovirus (HIV-1); assay: cell-based or functional assay
[17] = biological target: HIV-1 CMU02 envelope glycoprotein (Env) on pseudovirus (HIV-1); assay: cell-based or functional assay
[18] = biological target: HIV-1 MGRM-A-010 envelope glycoprotein (Env) on pseudovirus (HIV-1); assay: cell-based or functional assay
[19] = biological target: HIV-1 MGRM-C-027 envelope glycoprotein (Env) on pseudovirus (HIV-1); assay: cell-based or functional assay
[20] = biological target: HIV-1 NL43 envelope glycoprotein (Env) on pseudovirus (HIV-1); assay: cell-based or functional assay
[21] = biological target: HIV-1 92UG024 envelope glycoprotein (Env) on pseudovirus (HIV-1); assay: cell-based or functional assay
[22] = biological target: HIV-1 MGRM-C-028 envelope glycoprotein (Env) on pseudovirus (HIV-1); assay: cell-based or functional assay
[23] = biological target: HIV-1 93UG077 envelope glycoprotein (Env) on pseudovirus (HIV-1); assay: cell-based or functional assay
[24] = biological target: HIV-1 Env of isolate 93IN905 (HIV-1); assay: cell-based or functional assay
[25] = biological target: Env of the clade F HIV-1 pseudoviruses of the cross-clade 162-pseudovirus panel (n = 15); assay: cell-based or functional assay
[26] = biological target: Env of the clade B HIV-1 pseudoviruses of the cross-clade 162-pseudovirus panel (n = 31); assay: cell-based or functional assay
[27] = biological target: Env of the clade G HIV-1 pseudoviruses of the cross-clade 162-pseudovirus panel (n = 15); assay: cell-based or functional assay
[28] = biological target: Env of the clade A HIV-1 pseudoviruses of the cross-clade 162-pseudovirus panel (n = 26); assay: cell-based or functional assay
[29] = biological target: HIV-1 Env of isolate MGRM-C-026 (HIV-1); assay: cell-based or functional assay
[30] = biological target: Env of the clade D HIV-1 pseudoviruses of the cross-clade 162-pseudovirus panel (n = 25); assay: cell-based or functional assay
[31] = biological target: Env of the clade C HIV-1 pseudoviruses of the cross-clade 162-pseudovirus panel (n = 27); assay: cell-based or functional assay
[32] = biological target: HIV-1 Env of isolate JR-CSF (HIV-1) (UniProt P20871); assay: cell-based or functional assay
[33] = biological target: JR-FL gp120 ΔV3 (HIV-1 (isolate JR-FL)); assay: ELISA on coated gp120; EC50 by nonlinear regression
[34] = biological target: JR-FL gp120 ΔV1/ΔV2 (HIV-1 (isolate JR-FL)); assay: as above
[35] = biological target: WT JR-FL gp120 (HIV-1 (isolate JR-FL)); assay: as above

B1: PGT-136 (5329_C19; 5366_P21) human monoclonal anti-HIV antibody (antibody, V domains shown)
VH: QLQLQESGPGLVKPSETLSLTCTVSGGSMRGTDWGENDFHYGWIRQSSAKGLEWIGSIHWRGRTTHYKTSFRSRATLSIDTSNNRFSLTFSFVTAADTAVYYCARHKYHDIFRVVPVAGWFDPWGQGLLVTVSS
VL: EIVMTQSPPTLSVSPGETATLSCRASQNVKNNLAWYQLKPGQAPRLLIFDASSRAGGIPDRFSGSGYGTDFTLTVNSVQSEDFGDYFCQQYEEWPRTFGQGTKVDIK
0.0065 µg/mL: neutralization IC50 [14]
0.156 µg/mL: neutralization IC90 [9]
5.97 µg/mL: neutralization IC95 [21]
0.159 µg/mL: neutralization IC95 [14]
0.379 µg/mL: neutralization IC95 [9]
1.96 µg/mL: neutralization IC90 [21]
> 10 µg/mL: neutralization IC50 [1] | neutralization IC80 [1] | neutralization IC90 [1] | neutralization IC95 [1] | neutralization IC50 [2] | neutralization IC80 [2] | neutralization IC90 [2] | neutralization IC95 [2] | neutralization IC50 [3] | neutralization IC80 [3] | neutralization IC90 [3] | neutralization IC95 [3] | neutralization IC50 [4] | neutralization IC80 [4] | neutralization IC90 [4] | neutralization IC95 [4] | neutralization IC50 [5] | neutralization IC80 [5] | neutralization IC90 [5] | neutralization IC95 [5] | neutralization IC50 [6] | neutralization IC80 [6] | neutralization IC90 [6] | neutralization IC95 [6] | neutralization IC50 [7] | neutralization IC80 [7] | neutralization IC90 [7] | neutralization IC95 [7] | neutralization IC50 [8] | neutralization IC80 [8] | neutralization IC90 [8] | neutralization IC95 [8] | neutralization IC50 [10] | neutralization IC80 [10] | neutralization IC90 [10] | neutralization IC95 [10] | neutralization IC50 [11] | neutralization IC80 [11] | neutralization IC90 [11] | neutralization IC95 [11] | neutralization IC50 [12] | neutralization IC80 [12] | neutralization IC90 [12] | neutralization IC95 [12] | neutralization IC50 [13] | neutralization IC80 [13] | neutralization IC90 [13] | neutralization IC95 [13] | neutralization IC50 [15] | neutralization IC80 [15] | neutralization IC90 [15] | neutralization IC95 [15] | neutralization IC80 [16] | neutralization IC90 [16] | neutralization IC95 [16] | neutralization IC50 [17] | neutralization IC80 [17] | neutralization IC90 [17] | neutralization IC95 [17] | neutralization IC50 [18] | neutralization IC80 [18] | neutralization IC90 [18] | neutralization IC95 [18] | neutralization IC50 [19] | neutralization IC80 [19] | neutralization IC90 [19] | neutralization IC95 [19] | neutralization IC50 [20] | neutralization IC80 [20] | neutralization IC90 [20] | neutralization IC95 [20] | neutralization IC50 [22] | neutralization IC80 [22] | neutralization IC90 [22] | neutralization IC95 [22] | neutralization IC50 [23] | neutralization IC80 [23] | neutralization IC90 [23] | neutralization IC95 [23]
0.0623 µg/mL: neutralization IC80 [9]
0.738 µg/mL: neutralization IC50 [16]
0.0687 µg/mL: neutralization IC90 [14]
0.0285 µg/mL: neutralization IC80 [14]
0.0135 µg/mL: neutralization IC50 [9]
0.619 µg/mL: neutralization IC80 [21]
0.0915 µg/mL: neutralization IC50 [21]

B2: PGT-137 (antibody, V domains shown)
VH: EVHLEESGPGLVRPSETLSLTCTASGGSIRGGEWGDSDYHWGWVRHSPEKGLEWIGSIHWRGTTHYNAPFRGRGRLSIDLSRNQFSLRLTSVTAEDTAVYYCVKHKYHDIVMVVPIAGWFDPWGQGLQVTVSS
VL: EIMMTQSPAILSVSPGDRATLSCRASQSVKNNLAWYQKRPGQAPRLLIFDTSSRASGIPARFSGGGSGTEFTLTVNSMQSEDFATYYCQQYEEWPRTFGQGTKVEIK
6.23 µg/mL: Median IC50 against viruses neutralized with an IC50 <50 µg/ml [25]
0.72 µg/mL: Median IC50 against viruses neutralized with an IC50 <50 µg/ml [28]
11.3: Primary Neutralization Index (B cell culture well 5345 I1) [29]
8.55 µg/mL: Median IC50 against viruses neutralized with an IC50 <50 µg/ml [26]
0.1 µg/mL: EC50 [33] | EC50 [35]
1.1: Primary Neutralization Index (B cell culture well 5345 I1) [32]
0.23 µg/mL: Median IC50 against viruses neutralized with an IC50 <50 µg/ml [27] | Median IC50 against viruses neutralized with an IC50 <50 µg/ml [31]
0.2 µg/mL: EC50 [34]
3.3: Primary Neutralization Index (B cell culture well 5345 I1) [24]
6.3 µg/mL: Median IC50 against viruses neutralized with an IC50 <50 µg/ml [30]
